# Assay results reported in patent publication US20210380697A1 (HUMMINGBIRD BIOSCIENCE PTE, published 2021).
# How the values were obtained:
# His-tagged human VISTA [1] = molecular target: T1, His-tagged human VISTA (human, UniProt Q9H7M9 33-194); assay: BLI epitope binning, human VISTA-His on anti-Penta-His sensor; row = saturating antibody 400 nM; competitor added after it: IGN175A IgG1 300 nM
# T1 construct: Bought recombinant protein with a His tag; also called human VISTA-His recombinant protein; hVISTA
# Protocol: (§1) Epitope binning experiments were performed by BLI using the Octet QK384 system (ForteBio). […] Biosensors were subsequently treated with 300 nM competing antibody in
# (§2) The following antigen-binding molecules were analysed in the experiment: [1639]
# His-tagged human VISTA [2] = molecular target: T1, His-tagged human VISTA; assay: BLI epitope binning, human VISTA-His on anti-Penta-His sensor; row = saturating antibody 400 nM; competitor added after it: V4-C1 IgG1 300 nM
# Protocol: as §1, §2
Binder,change in response upon addition of the competing antibody (His-tagged human VISTA [1]) [nm],change in response upon addition of the competing antibody (His-tagged human VISTA [2]) [nm]
"IGN175A IgG1 (antibody, V domains shown, Prior-art comparator (WO 2014/197849)) VH: QVQLQQSGAELMKPGASVKISCKATGYTFSTHWIEWVKQRPGHGLEWIGEILPGSGSTSYNEKFKGKATFTADTSSNTAYMQLSSLTSEDSAVYYCARWLLYYYAMDYWGQGTSVTVSS VL: DVLMTQTPLSLPVSLGDQASISCRSSQSIVHSNGNTYLEWYLQKPGQSPKLLIYKLSNRFSGVPDRFSGSGSGTDFTLKISRVEAEDLGVYYCFQGSHFPYTFGGGTKLEIKR",0.0454,1.44
"anti-VISTA clone V4-C1 IgG1 (antibody, V domains shown) VH: QVQLQESGPGLVKPSDTLSLTCTVSGYSITSDYAWNWIRQTPGKGLEWIGYITYSGYISYNPSLRSRVTISRDTSKNQFSLKLSSVTAADTAVYSCARALYYPWYFDVWGTGTTVTVSS VL: EIVITQSPATLSLSPGERATLSCRASSSVGYIHWYQQKPGQAPRPLIYATSNRATGIPARFSGSGSGTDNTLTISSLEPEDSAVYYCQQWSSYPPITFGGGTKLEVKR",1.07,-0.0158
